According to ChEMBL document CHEMBL1136204, “Thymidine and thymidine-5'-O-monophosphate analogues as inhibitors of Mycobacterium tuberculosis thymidylate kinase” (Bioorg Med Chem Lett, 2003):

What was measured:
[1] = substrate: Cc1cn([C@H]2C[C@H](O)[C@@H](COP(=O)(O)O)O2)c(=O)[nH]c1=O; experiment: Affinity towards thymidine monophosphate kinase (TMPKmt) in Mycobacterium tuberculosis using HPLC chromatography test
[2] = substrate: Cc1cn([C@H]2C=C[C@@H](COP(=O)(O)O)O2)c(=O)[nH]c1=O; experiment: Affinity towards thymidine monophosphate kinase (TMPKmt) in Mycobacterium tuberculosis

B1: Thymidylate kinase (Mycobacterium tuberculosis), P9WKE1 (protein)
chain: MLIAIEGVDGAGKRTLVEKLSGAFRAAGRSVATLAFPRYGQSVAADIAAEALHGEHGDLASSVYAMATLFALDRAGAVHTIQGLCRGYDVVILDRYVASNAAYSAARLHENAAGKAAAWVQRIEFARLGLPKPDWQVLLAVSAELAGERSRGRAQRDPGRARDNYERDAELQQRTGAVYAELAAQGWGGRWLVVGADVDPGRLAATLAPPDVPS
**Q.** B1 was tested. Which Km [1] did it give?
**A.** The Km was 40 µM.

**Q.** What about the Km [2] of the same protein?
**A.** The Km was 140 µM.
